From doi:10.1101/2025.09.12.675771 (bioRxiv, 2025)
Numbering of substitutions follows the chain as printed. In names and notes the source's numbering stands.

Tests used:
[1] = target: SARS-CoV-2 RBD (residues 332-527), wild type (SARS-CoV-2, wild type (Wuhan-Hu-1), UniProt P0DTC2)
RBD of COVID-19 = RBD of COVID-19 (SARS-CoV-2, wild type (Wuhan-Hu-1) …, UniProt P0DTC2)
[2] = target: Programmed death-ligand 1 (PD-L1) (Homo sapiens (assumed), UniProt Q9NZQ7); test: SPR; format and conditions not told; details: both partners purified
Chain of Programmed death-ligand 1 (PD-L1) (Q9NZQ7 19-290): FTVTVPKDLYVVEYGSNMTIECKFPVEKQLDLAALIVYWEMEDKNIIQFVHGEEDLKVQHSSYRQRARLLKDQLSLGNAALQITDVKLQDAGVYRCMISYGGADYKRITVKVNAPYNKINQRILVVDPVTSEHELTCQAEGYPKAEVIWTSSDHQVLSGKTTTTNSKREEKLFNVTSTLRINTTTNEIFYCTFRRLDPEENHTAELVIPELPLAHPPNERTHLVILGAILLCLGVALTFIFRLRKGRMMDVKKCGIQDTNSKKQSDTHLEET

B1: R1-32-Q61E-WT (antibody, V domains shown)
VH: EVQLVQSGAEVKKPGSSVKVSCKASGGTFSSYFISWVRQAPGQGLEWMGGIIPILGIADYAEKFQGRVTITADKSTSTAYMELSSLRSEDTAVYYCARENGYSGYGAAYNFDLWGRGTLVTVSS
VL: QSVLTQPPSVSGAPGQRVTISCTGSDSNIGAGYDVHWYQQLPGTAPKLLIYGNSNRPSGVPDRFSGSKSGTSASLAITGLQAEDEADYYCQSYDSSLSGSVFGGGTKLTVL
**Q.** Does B1 bind [1]?
**A.** Result: binds

B2: Human-1 (antibody, V domains shown)
VH: QVQLKESGPGLVKPSQTLSLTCTVSGFSLINYAISWIRQPPGKGLEWIGVIWTGGGTNYNSALKSRLTISKDTSKNQVSLKLSSVTAADTAVYYCARKDYYGRYYGMDYWGQGTTVTVSS
VL: QAVVTQEPSFTVSPGGTVTLTCRSSTGAVTTSNYANWYQQTPGQLFTGLIGGTNNRAPGVPDRFSGSLLGDKAALTITGAQADDEAIYYCALWYNNHWVFGGGTKLTVL
**Q.** For B2, which Kd (RBD of COVID-19) is on record?
**A.** The Kd was 171 pM.

B3: Human-5 (antibody, V domains shown)
VH: QVQLQESGPGLVKPSETLSLTCTVSGFSLINYAISWVRQPPGKGLEWLGVIWTGGGTNYNSALKSRLTISKDNSKNTVYLKMNSLKTEDTARYYCARKDYYGRYYGMDYWGQGTLVTVSS
VL: B2 VL with T11S, Y38V, Q40E, L45A, T47R, D71N, A86S
**Q.** For B3, which Kd (RBD of COVID-19) is on record?
**A.** Its Kd is 139 pM.

B4: D2 (antibody, V domains shown)
VH: not shown
VL: DIQMTQSPSTLSASVGDRVTITCRASQDVSSYLAWYQQKPGKAPKLLIYAASFLQSGVPSRFSGSGSGTEFTLTISSLQPDDFATYYCQQHYSTPPTFGQGTKVEIK
**Q.** Does B4 bind [2]?
**A.** Result: binds

B5: D4 (antibody, V domains shown)
VH: EVQLLESGGGLVQPGGSLRLSCAASGFTFSNYAMSWVRQAPGKGLEWVSAISSGGGYTYYADSVKGRFTISRDNSKNTLYLQMNSLRAEDTAVYYCAKDHDYAYYAFDYWGQGTLVTVSS
VL: B4 VL with D28S, V29I, S31N, Y32W, A50W, F53T, Q55E, H91Y, Y92A, P96L
**Q.** Does B5 bind [2]?
**A.** Result: binds

B6: D3 (antibody, V domains shown)
VH: not shown
VL: DIQMTQSPSTLSASVGDRVTITCRASQTIGTWLAWYQQKPGKAPKLLIYTATSLADGVPSRFSGSGSGTEFTLTISSLQPDDFATYYCQQVSSNPRTFGQGTKVEIK
**Q.** Does B6 bind [2]?
**A.** Result: binds

B7: D1 (antibody, V domains shown)
VH: not shown
VL: DIQMTQSPSTLSASVGDRVTITCKASQDVNTAVAWYQQKPGKAPKLLIYWASTLHTGVPSRFSGSGSGTEFTLTISSLQPDDFATYYCQHYYTDPWTFGQGTKVEIK
**Q.** How did the Kd [2] turn out when B7 was run?
**A.** Its Kd is 84 pM.
